Positions count from the first letter of the chain named.
Experiments:
[1] = target: T1, human Tissue Factor on MDA-MB-231 cells (human, UniProt P13726 33-295); assay: flow cytometry, MDA-MB-231 cells; binding of 20 nM FVII-Fc-Alexa488 (competitor) left at 83 nM Ab
T1 construct: also called TF; hTF

Relipidated TF = Relipidated TF (UniProt P13726 33-295, limits assumed); assay: cell-based or functional assay
[2] = target: T1, human Tissue Factor on MDA-MB-231 cells; assay: flow cytometry, MDA-MB-231 cells; binding of 20 nM FVII-Fc-Alexa488 (competitor) left at 250 nM Ab
[3] = target: T1, human Tissue Factor on MDA-MB-231 cells; assay: flow cytometry, MDA-MB-231 cells; binding of 20 nM FVII-Fc-Alexa488 (competitor) left at 9.25 nM Ab
[4] = target: T1, human Tissue Factor on MDA-MB-231 cells; assay: cell-based or functional assay
[5] = target: T1, human Tissue Factor on MDA-MB-231 cells; assay: flow cytometry, MDA-MB-231 cells; binding of 20 nM FVII-Fc-Alexa488 (competitor) left at 28 nM Ab
[6] = target: T2, Macaca mulatta TF on RF/6A cells (Macaca mulatta, UniProt P13726 33-294 (human entry)); assay: flow cytometry on Macaca mulatta RF/6A cells
T2 construct: also called TF-positive Macaca mulatta RF/6A cells; cynomolgus TF (cTF)
T2 chain: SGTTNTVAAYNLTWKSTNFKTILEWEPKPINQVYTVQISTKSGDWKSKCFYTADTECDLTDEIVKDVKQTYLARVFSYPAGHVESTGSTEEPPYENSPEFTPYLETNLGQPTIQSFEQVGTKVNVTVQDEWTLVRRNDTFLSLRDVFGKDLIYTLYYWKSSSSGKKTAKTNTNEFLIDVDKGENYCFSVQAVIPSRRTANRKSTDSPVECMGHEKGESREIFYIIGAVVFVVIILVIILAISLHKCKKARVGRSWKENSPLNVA

[7] = target: T3, E. coli-derived TF ECD-His6 (Homo sapiens (Human), UniProt P13726 33-251); assay: protein ELISA, plate coated with E. coli-derived TF-His
T3 construct: The OmpA signal is not part of that entry; also called E.coli-derived TF protein; E. coli-derived TF-His

[8] = target: T4, human Tissue Factor (hTF), endogenously expressed on human TF-positive cells (human, UniProt P13726 33-295); assay: flow cytometry competition on A431 cells, 100 nM unlabelled antibody, competitor 20 nM 25A-Alexa488
T4 construct: also called CD142

[9] = target: T5, Expi293-derived human TF ECD-His6 (TF-His) (human, UniProt P13726 33-251); assay: protein ELISA, plate coated with Expi293-derived TF-His
T5 construct: Glycosylated TF ECD-His6 made in Expi293 cells and coated on ELISA plates; also called Expi293-derived TF protein

[10] = target: T4, human Tissue Factor (hTF), endogenously …; assay: flow cytometry competition on A431 cells, 100 nM unlabelled antibody, competitor 20 nM 43Ea-Alexa488
[11] = target: T4, human Tissue Factor (hTF), endogenously …; assay: cell-based or functional assay
rabbit TF-His = target: T6, rabbit TF-His (rabbit (Oryctolagus cuniculus), UniProt P24055 33-250); assay: SPR (Biacore), antibody captured by anti-human IgG on CM5 chip, rabbit TF-His in solution, 1:1 model
T6 construct: also called rabbit TF ECD-His
T6 sequence (P24055 other isoform, or with tags, fused parts or gaps): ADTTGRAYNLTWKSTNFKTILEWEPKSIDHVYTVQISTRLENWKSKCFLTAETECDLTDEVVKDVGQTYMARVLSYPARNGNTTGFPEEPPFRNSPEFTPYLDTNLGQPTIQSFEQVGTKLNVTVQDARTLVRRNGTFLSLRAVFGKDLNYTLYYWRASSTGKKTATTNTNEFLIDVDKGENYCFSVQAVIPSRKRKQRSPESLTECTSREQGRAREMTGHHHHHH

pig TF-His = target: T7, pig TF-His (pig (Sus scrofa)); assay: SPR (Biacore), antibody captured by anti-human IgG on CM5 chip, pig TF-His in solution, 1:1 model
T7 construct: also called pig TF ECD-His; pTF
T7 chain: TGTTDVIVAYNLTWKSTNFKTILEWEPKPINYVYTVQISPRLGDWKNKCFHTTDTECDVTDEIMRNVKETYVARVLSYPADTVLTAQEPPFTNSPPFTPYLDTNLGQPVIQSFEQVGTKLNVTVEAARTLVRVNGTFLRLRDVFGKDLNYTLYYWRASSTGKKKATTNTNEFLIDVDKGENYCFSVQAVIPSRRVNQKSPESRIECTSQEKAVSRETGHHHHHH

B1: 1F (antibody, V domains shown)
VH: EVQLLESGGGLVQPGGSLRLSCAASGFTFSDYAMGWVRQAPGKGLEWVSTISGSGGLTYYADSVKGRFTISRDNSKNTLYLQMNSLRAEDTAVYYCAKAPYGYYMDVWGKGTTVTVSS
VL: not shown
notes: Human anti-TF IgG1
% FVIIa [1]: 7%
TGA % ETP, 10 nM Ab, 10 min pre-incubation (Relipidated TF): 31%
TGA % Peak IIa, 10 nM Ab, 10 min pre-incubation (Relipidated TF): 10%
TGA % Peak IIa, 50 nM Ab, 10 min pre-incubation (Relipidated TF): 7%
TGA % Peak IIa, 100 nM Ab, 10 min pre-incubation (Relipidated TF): 7%
TGA ETP, 10 nM Ab, 10 min pre-incubation (Relipidated TF): 540 nM·min
TGA Lag Time, 10 nM Ab, 10 min pre-incubation (Relipidated TF): 18.8 min
TGA Lag Time, 50 nM Ab, 10 min pre-incubation (Relipidated TF): 27.6 min
TGA Lag Time, 100 nM Ab, 10 min pre-incubation (Relipidated TF): 30.3 min
TGA Peak IIa, 10 nM Ab, 10 min pre-incubation (Relipidated TF): 27 nM
TGA Peak IIa, 50 nM Ab, 10 min pre-incubation (Relipidated TF): 20 nM
TGA Peak IIa, 100 nM Ab, 10 min pre-incubation (Relipidated TF): 17 nM
TGA ttPeak, 10 nM Ab, 10 min pre-incubation (Relipidated TF): 28.6 min
TGA ttPeak, 50 nM Ab, 10 min pre-incubation (Relipidated TF): 38.9 min
TGA ttPeak, 100 nM Ab, 10 min pre-incubation (Relipidated TF): 42 min
% FVIIa [2]: 6%
% FVIIa [3]: 7%
% IL8, 2.56 nM Ab [4]: 18%
% IL8, 6.4 nM Ab [4]: 3%
% IL8, 16 nM Ab [4]: 2%
% IL8, 40 nM Ab [4]: 2%
% IL8, 100 nM Ab [4]: 2%
% FVIIa [5]: 7%

B2: 25A (antibody, V domains shown)
VH: QVQLVQSGAEVKKPGASVKVSCKASGYTFDVYGISWVRQAPGQGLEWMGWIAPYNGNTNYAQKLQGRVTMTTDTSTSTAYMELRSLRSDDTAVYYCARDAGTYSPFGYGMDVWGQGTTVTVSS
VL: DIQMTQSPSTLSASVGDRVTITCRASQSISSWLAWYQQKPGKAPKLLIYKASSLESGVPSRFSGSGSGTEFTLTISSLQPDDFATYYCQQFQSLPPFTFGGGTKVEIK
notes: Human anti-TF IgG1
% FVIIa [1]: 97%
% FVIIa [2]: 98%
% FVIIa [3]: 100%
% IL8, 2.56 nM Ab [4]: 43%
% IL8, 6.4 nM Ab [4]: 11%
% IL8, 16 nM Ab [4]: 10%
% IL8, 40 nM Ab [4]: 8%
% IL8, 100 nM Ab [4]: 9%

B3: anti-TF antibody 1F (antibody, human IgG1, V domains shown)
VH: B1 VH
VL: not shown
notes: Human IgG1
EC50 [6]: 170 pM
EC50 [7]: 320 pM
% 25A binding [8]: 95%
EC50 [9]: 410 pM
% 43Ea binding [10]: 77%
% GM-CSF, 2.56 nM antibody, MDA-MB-231 cells + FVIIa [11]: 27%
% GM-CSF, 6.4 nM antibody, MDA-MB-231 cells + FVIIa [11]: 8%
% GM-CSF, 16 nM antibody, MDA-MB-231 cells + FVIIa [11]: 6%
% GM-CSF, 40 nM antibody, MDA-MB-231 cells + FVIIa [11]: 6%
% GM-CSF, 100 nM antibody, MDA-MB-231 cells + FVIIa [11]: 6%

B4: anti-TF antibody 25A (antibody, human IgG1, V domains shown)
VH: B2 VH
VL: B2 VL
notes: Human IgG1
EC50 [6]: 430 pM
EC50 [7]: 350 pM
% 25A binding [8]: 3%
EC50 [9]: 540 pM
% 43Ea binding [10]: 1%
% GM-CSF, 2.56 nM antibody, MDA-MB-231 cells + FVIIa [11]: 57%
% GM-CSF, 6.4 nM antibody, MDA-MB-231 cells + FVIIa [11]: 24%
% GM-CSF, 16 nM antibody, MDA-MB-231 cells + FVIIa [11]: 22%
% GM-CSF, 40 nM antibody, MDA-MB-231 cells + FVIIa [11]: 19%
% GM-CSF, 100 nM antibody, MDA-MB-231 cells + FVIIa [11]: 22%

B5: anti-TF antibody 25G (antibody, human IgG1, kappa, V domains shown)
VH: B2 VH with D30R, V31S, I51V, F106Y
VL: DIQMTQSPSTLSASVGDRVTITCRASQSISSWLAWYQQKPGKAPKLLIYKASSLESGVPSRFSGSGSGTEFTLTISSLQPDDFATYYCQQFQSLPPFTFGGGTKVEIKR
notes: Human IgG1
% 25A binding [8]: 7%
% 43Ea binding [10]: 3%
% GM-CSF, 2.56 nM antibody, MDA-MB-231 cells + FVIIa [11]: 77%
% GM-CSF, 6.4 nM antibody, MDA-MB-231 cells + FVIIa [11]: 39%
% GM-CSF, 16 nM antibody, MDA-MB-231 cells + FVIIa [11]: 32%
% GM-CSF, 40 nM antibody, MDA-MB-231 cells + FVIIa [11]: 18%
% GM-CSF, 100 nM antibody, MDA-MB-231 cells + FVIIa [11]: 19%

B6: anti-TF antibody 25A3 (antibody, human IgG1, kappa, V domains shown)
VH: B2 VH with N55S
VL: B5 VL with R24Q, S30N, S31N, S52Y, S53N, Q90L
notes: Human IgG1
EC50 [6]: 270 pM
EC50 [7]: 360 pM
EC50 [9]: 470 pM

B7: anti-TF antibody 25G1 (antibody, human IgG1, kappa, V domains shown)
VH: B2 VH with D30R, V31S, I51V, N55S, F106Y
VL: B5 VL with Q27H, S30D, S53Y, Q90L
notes: Human IgG1
EC50 [6]: 270 pM
EC50 [7]: 310 pM
EC50 [9]: 420 pM
% GM-CSF, 2.56 nM antibody, MDA-MB-231 cells + FVIIa [11]: 48%

B8: anti-TF antibody 29E (antibody, human IgG1, V domains shown)
VH: QVQLVESGGGVVQPGRSLRLSCAASGFTFRSYGMHWVRQAPGKGLEWVAVITYDGINKYYADSVEGRFTISRDNSKNTLYLQMNSLRAEDTAVYYCARDGVYYGVYDYWGQGTLVTVSS
VL: not shown
notes: Human IgG1
EC50 [6]: 530 pM
EC50 [7]: 680 pM
% 25A binding [8]: 96%
EC50 [9]: 980 pM
% 43Ea binding [10]: 85%
% GM-CSF, 2.56 nM antibody, MDA-MB-231 cells + FVIIa [11]: 33%
% GM-CSF, 6.4 nM antibody, MDA-MB-231 cells + FVIIa [11]: 9%
% GM-CSF, 16 nM antibody, MDA-MB-231 cells + FVIIa [11]: 5%
% GM-CSF, 40 nM antibody, MDA-MB-231 cells + FVIIa [11]: 6%
% GM-CSF, 100 nM antibody, MDA-MB-231 cells + FVIIa [11]: 6%

B9: anti-TF antibody 39A (antibody, human IgG1, V domains shown)
VH: QVQLVQSGAEVKKPGSSVKVSCKASGGTFSSNAIGWVRQAPGQGLEWMGSIIPIIGFANYAQKFQGRVTITADESTSTAYMELSSLRSEDTAVYYCARDSGYYYGASSFGMDVWGQGTTVTVSS
VL: EIVMTQSPATLSVSPGERATLSCRASQSVSSNLAWYQQKPGQAPRLLIYGASTRATGIPARFSGSGSGTEFTLTISSLQSEDFAVYYCEQYNNLPLTFGGGTKVEIK
notes: Human IgG1
EC50 [6]: 270 pM
EC50 [7]: 340 pM
% 25A binding [8]: 99%
EC50 [9]: 450 pM
% GM-CSF, 2.56 nM antibody, MDA-MB-231 cells + FVIIa [11]: 42%
% GM-CSF, 6.4 nM antibody, MDA-MB-231 cells + FVIIa [11]: 8%
% GM-CSF, 16 nM antibody, MDA-MB-231 cells + FVIIa [11]: 5%
% GM-CSF, 40 nM antibody, MDA-MB-231 cells + FVIIa [11]: 5%
% GM-CSF, 100 nM antibody, MDA-MB-231 cells + FVIIa [11]: 7%

B10: anti-TF antibody 54E (antibody, human IgG1, V domains shown)
VH: QVQLVQSGAEVKKPGASVKVSCKASGYTFANYYMHWVRQAPGQGLEWMGIINPSGGITVYAQKFQGRVTMTRDTSTSTVYMELSSLRSEDTAVYYCARGGSKVAALAFDIWGQGTMVTVSS
VL: DIQMTQSPSSLSASVGDRVTITCQASQDISNSLNWYQQKPGKAPKLLIYDASNLETGVPSRFSGSRSGTDFTFTISSLQPEDIATYYCQQYNFHPLTFGGGTKVEIK
notes: Human IgG1
EC50 [6]: 1280 pM
EC50 [7]: 380 pM
% 25A binding [8]: 99%
EC50 [9]: 960 pM
% 43Ea binding [10]: 96%
% GM-CSF, 2.56 nM antibody, MDA-MB-231 cells + FVIIa [11]: 38%
% GM-CSF, 6.4 nM antibody, MDA-MB-231 cells + FVIIa [11]: 10%
% GM-CSF, 16 nM antibody, MDA-MB-231 cells + FVIIa [11]: 5%
% GM-CSF, 40 nM antibody, MDA-MB-231 cells + FVIIa [11]: 5%
% GM-CSF, 100 nM antibody, MDA-MB-231 cells + FVIIa [11]: 5%

B11: 43D8 (antibody, human IgG1, kappa, V domains shown)
VH: QVQLQQWGAGLLKPSETLSLTCAVYGGSLSGYYWSWIRQPPGKGLEWIGEIGASGSTRYNPSLKSRVTISVDTSKNQFSLKLSSVTAADTAVYYCARDTPYYYEGGYYYYMDVWGKGTTVTVSS
VL: EIVLTQSPGTLSLSPGERATLSCRASQSVSSSFLAWYQQKPGQAPRLLIYGAYSRATGIPDRFSGSGSGTDFTLTISRLEPEDFAVYYCQQAGVVPYTFGGGTKVEIKR
notes: Human IgG1; also called antibody 43D8; 43D8 mAb
Kd (rabbit TF-His): 7700 pM
Kd (pig TF-His): 19200 pM

Reference: US20240166765A1 (ICONIC THERAPEUTICS, published 2024)
